Laboratory results: patent US20220009992A1 (FRED HUTCHINSON CANCER CENTER, published 2022)

Target: peptide #10 (from the gene EHF) presented on peptide-pulsed T2 target cells (human, UniProt P61769 21-119)
Assay: cell-based or functional assay

B1: TCR Msln530-B11 (TCR, V domains shown)
V domain 1: ETGVTQSPTHLIKTRGQQVTLRCSSQSGHNTVSWYQQALGQGPQFIFQYYREEENGRGNFPPRFSGLQFPNYSSELNVNALELDDSALYLCASSFAGGRSDTQYFGPGTRLTVLE
V domain 2: KQEVTQIPAALSVPEGENLVLNCSFTDSAIYNLQWFRQDPGKGLTSLLLIQSSQREQTSGRLNASLDKSSGRSTLYIAASQPGDSATYLCAVRLLFAQGGSEKLVFGKGTKLTVNP
For B1, which “EC50 of peptide for IFN-γ production, ratio to the EC50 for Msln530” value is on record?
Its value is > 3000 fold (EC50 for peptide #10 over EC50 for Msln530).
